Assay [1] addresses T1, human IGF-IR on cells (human, UniProt P08069 31-1367). Kind of assay: cell-based or functional assay.
For another assay, the target named is T2, canine IGF-IR (canine, UniProt A0A8I3MER7 10-1344).
T2 construct: whole, on cells
The assay can be described thus: immunoprecipitation and Western blot on cells. The protocol:
(§1) The samples prepared as described above were then analyzed by Western blot. We loaded 12 μl of each sample per lane on 4-10% gradient Novex™ gels run with 1× MES buffer (Novex™). Gels were run at 150V for 1 hour or at 200V for approximately 30 minutes. We then transferred the gel to a membrane in Novex™ transfer buffer with 10% methanol either overnight at 100 mA or for 1-1.5 hours at 250 mA. We then allowed the membrane to dry completely and blocked at room temperature with TBS (Tris-buffered saline pH 8.0) containing Superblock (Pierce Chemical Co.). We added the IGF-IR blotting antibody SC713 (Santa Cruz) to detect immunoprecipitated IGF-IR.
In general terms: A western blot detects proteins with antibodies after separation by electrophoresis.

The next assay has as its target guinea pig IGF-IR (guinea pig, UniProt H0V5D0 31-736; H0V5D0 741-1367). Kind of assay: immunoprecipitation and Western blot on cells. The protocol:
as §1

Another assay deals with T3, rabbit IGF-IR (rabbit, UniProt G1TLR2 31-1366).
T3 construct: whole, on cells
Kind of assay: immunoprecipitation and Western blot on cells. The method, then: as §1

The target of assay [2] is T1, human IGF-IR on cells. The assay can be described thus: inhibition of [125I]-IGF-I binding to IGF-IR-transfected NIH-3T3 cells. The method, then:
We plated IGF-IR-transfected NIH-3T3 cells (5×10⁴/ml) in 100 μl of DMEM high glucose media supplemented with L-glutamine (0.29 mg/ml), 10% heat-inactivated FBS, and 500 μg/ml each of geneticin, penicillin and streptomycin in 96-well U-bottom plates. We then incubated the plates at 37° C., 5% CO₂ overnight to allow cells to attach. We then decanted the media from the plates and replaced it with 100 μl fresh media per well. For testing, we diluted antibodies in assay media (DMEM high glucose media supplemented with L-glutamine, 10% heat-inactivated FBS, 200 μg/ml BSA and 500 μg/ml each of geneticin, penicillin and streptomycin) to the desired final concentration and added 50 μl per well. All samples were performed in triplicate. We then incubated the plates at 37° C. for ten minutes. […] We incubated the plates for 10 minutes at 37° C., decanted the media by blotting gently onto paper towels and washed twice with assay media. We then lysed the cells by adding 50 μl 0.1 N NaOH, 0.1% SDS and shaking the plates for five minutes at room temperature. We then transferred the samples to a scintillation plate, added 150 μl OptiPhase Supermix and read the signal on a Wallac Micro-Beta counter.

A further assay has as its target COS7 IGF-IR (old world monkey (COS7 cells)). Kind of assay: cell-based or functional assay.
Another assay deals with Rhesus IGF-IR (rhesus, UniProt I2CWY3 31-736; I2CWY3 741-1367). Kind of assay: cell-based or functional assay.
The target in the next assay is T4, cynomologous IGF-IR (cynomologous).
T4 construct: whole, on cells; also called IGF-IR of cynomologous cells
Kind of assay: flow cytometry, biotinylated antibody on cynomologous cells, streptavidin-RPE. The protocol:
We performed FACS analysis to determine the affinity of the antibodies of the invention for IGF-IR from other animals, particularly the old world monkeys described above. We incubated aliquots of human and monkey cells (5×10⁵) for 1 hour on ice with increasing concentrations of biotinylated anti-IGF-IR antibodies of the invention or with a biotinylated anti-keyhole limpet hemocyanin (KLH) antibody (Abgenix) as a negative control. We then incubated the samples for 30 minutes on ice with steptavidin-conjugated RPE (phycoerythrin). We measured binding by flow cytometry and analyzed the histograms of fluorescence intensity (Fl2-H) versus cell number (Counts) using CellQuest software. We calculated binding (Kd) for each antibody from graphs of mean fluorescence intensity versus antibody concentration. In most experiments, we measured binding in cultured human MCF-7 cells and either rhesus or cynomologous tissue culture cells. We controlled for depletion of the antibody by measuring binding over a range of cell concentrations.
Background: Flow cytometry measures light scatter and fluorescence of single cells or particles in a stream.

Chain of guinea pig IGF-IR (alpha, as listed by the source limits assumed, chain 1 of 2): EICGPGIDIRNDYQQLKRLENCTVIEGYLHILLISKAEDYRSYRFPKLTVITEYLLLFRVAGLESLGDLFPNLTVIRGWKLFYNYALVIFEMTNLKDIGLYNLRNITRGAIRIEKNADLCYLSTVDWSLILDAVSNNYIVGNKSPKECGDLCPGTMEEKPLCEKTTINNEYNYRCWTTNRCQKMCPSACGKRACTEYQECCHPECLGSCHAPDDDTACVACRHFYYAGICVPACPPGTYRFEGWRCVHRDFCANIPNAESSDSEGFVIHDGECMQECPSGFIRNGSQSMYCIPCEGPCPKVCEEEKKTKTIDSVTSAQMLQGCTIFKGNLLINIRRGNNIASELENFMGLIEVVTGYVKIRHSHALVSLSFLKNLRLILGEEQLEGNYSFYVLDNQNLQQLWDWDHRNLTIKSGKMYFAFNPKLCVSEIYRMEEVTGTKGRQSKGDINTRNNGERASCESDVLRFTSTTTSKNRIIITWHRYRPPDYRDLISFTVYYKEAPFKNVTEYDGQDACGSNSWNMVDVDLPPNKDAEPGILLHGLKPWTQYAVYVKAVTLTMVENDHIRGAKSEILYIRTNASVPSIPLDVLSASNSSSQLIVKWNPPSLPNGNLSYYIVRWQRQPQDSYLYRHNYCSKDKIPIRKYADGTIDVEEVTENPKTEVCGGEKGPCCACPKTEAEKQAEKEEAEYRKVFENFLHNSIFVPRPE
Chain of guinea pig IGF-IR (beta, as listed by the source limits assumed, chain 2 of 2): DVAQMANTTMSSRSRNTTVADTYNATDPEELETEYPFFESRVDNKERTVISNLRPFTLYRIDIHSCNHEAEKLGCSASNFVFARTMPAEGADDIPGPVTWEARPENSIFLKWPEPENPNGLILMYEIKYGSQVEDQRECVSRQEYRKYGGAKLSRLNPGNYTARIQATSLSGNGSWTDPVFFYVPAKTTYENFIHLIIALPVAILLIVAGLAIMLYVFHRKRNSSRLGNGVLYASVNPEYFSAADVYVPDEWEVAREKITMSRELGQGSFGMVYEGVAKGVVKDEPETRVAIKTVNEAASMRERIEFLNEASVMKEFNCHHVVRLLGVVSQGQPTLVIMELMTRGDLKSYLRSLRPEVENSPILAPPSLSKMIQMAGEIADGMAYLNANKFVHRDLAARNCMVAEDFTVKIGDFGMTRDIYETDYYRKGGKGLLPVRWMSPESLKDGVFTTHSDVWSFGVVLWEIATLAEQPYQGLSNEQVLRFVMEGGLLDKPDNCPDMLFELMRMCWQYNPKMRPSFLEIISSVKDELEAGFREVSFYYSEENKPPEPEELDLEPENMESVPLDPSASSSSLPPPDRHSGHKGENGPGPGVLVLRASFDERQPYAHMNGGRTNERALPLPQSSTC
T2 sequence (A0A8I3MER7 entry or part of it): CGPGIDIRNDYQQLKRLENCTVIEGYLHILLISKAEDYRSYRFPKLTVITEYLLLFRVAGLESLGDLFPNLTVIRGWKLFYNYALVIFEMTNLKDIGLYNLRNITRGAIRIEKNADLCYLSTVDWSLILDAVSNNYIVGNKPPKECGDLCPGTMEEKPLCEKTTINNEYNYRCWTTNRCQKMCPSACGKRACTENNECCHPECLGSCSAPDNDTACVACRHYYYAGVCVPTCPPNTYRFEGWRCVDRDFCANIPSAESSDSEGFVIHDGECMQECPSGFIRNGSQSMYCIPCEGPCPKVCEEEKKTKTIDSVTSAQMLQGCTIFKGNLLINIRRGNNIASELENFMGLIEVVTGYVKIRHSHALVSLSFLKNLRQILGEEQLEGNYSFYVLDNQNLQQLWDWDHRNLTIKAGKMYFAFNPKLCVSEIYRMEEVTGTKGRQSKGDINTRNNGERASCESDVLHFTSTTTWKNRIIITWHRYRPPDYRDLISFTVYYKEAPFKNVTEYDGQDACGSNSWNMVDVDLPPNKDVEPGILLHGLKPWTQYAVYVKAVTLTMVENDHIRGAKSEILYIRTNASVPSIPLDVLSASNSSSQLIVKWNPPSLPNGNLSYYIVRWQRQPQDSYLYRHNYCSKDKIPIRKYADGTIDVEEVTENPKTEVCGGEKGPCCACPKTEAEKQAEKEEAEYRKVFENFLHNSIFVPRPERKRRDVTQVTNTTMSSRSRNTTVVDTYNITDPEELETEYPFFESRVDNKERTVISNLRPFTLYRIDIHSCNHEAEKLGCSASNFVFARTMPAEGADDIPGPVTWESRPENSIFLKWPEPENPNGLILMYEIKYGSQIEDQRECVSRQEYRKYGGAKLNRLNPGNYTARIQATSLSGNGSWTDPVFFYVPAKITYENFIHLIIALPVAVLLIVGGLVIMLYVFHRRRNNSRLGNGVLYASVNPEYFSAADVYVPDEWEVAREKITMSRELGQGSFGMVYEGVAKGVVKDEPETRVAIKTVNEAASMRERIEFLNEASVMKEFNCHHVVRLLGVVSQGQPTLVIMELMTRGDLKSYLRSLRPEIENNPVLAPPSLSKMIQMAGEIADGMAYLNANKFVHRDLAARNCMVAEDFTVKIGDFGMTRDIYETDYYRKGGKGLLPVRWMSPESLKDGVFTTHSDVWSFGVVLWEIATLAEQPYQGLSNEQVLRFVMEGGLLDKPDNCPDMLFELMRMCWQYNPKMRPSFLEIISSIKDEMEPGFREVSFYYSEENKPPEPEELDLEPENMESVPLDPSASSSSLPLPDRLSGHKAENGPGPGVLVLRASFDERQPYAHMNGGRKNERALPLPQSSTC
Chain of Rhesus IGF-IR (alpha, as listed by the source limits assumed, chain 1 of 2): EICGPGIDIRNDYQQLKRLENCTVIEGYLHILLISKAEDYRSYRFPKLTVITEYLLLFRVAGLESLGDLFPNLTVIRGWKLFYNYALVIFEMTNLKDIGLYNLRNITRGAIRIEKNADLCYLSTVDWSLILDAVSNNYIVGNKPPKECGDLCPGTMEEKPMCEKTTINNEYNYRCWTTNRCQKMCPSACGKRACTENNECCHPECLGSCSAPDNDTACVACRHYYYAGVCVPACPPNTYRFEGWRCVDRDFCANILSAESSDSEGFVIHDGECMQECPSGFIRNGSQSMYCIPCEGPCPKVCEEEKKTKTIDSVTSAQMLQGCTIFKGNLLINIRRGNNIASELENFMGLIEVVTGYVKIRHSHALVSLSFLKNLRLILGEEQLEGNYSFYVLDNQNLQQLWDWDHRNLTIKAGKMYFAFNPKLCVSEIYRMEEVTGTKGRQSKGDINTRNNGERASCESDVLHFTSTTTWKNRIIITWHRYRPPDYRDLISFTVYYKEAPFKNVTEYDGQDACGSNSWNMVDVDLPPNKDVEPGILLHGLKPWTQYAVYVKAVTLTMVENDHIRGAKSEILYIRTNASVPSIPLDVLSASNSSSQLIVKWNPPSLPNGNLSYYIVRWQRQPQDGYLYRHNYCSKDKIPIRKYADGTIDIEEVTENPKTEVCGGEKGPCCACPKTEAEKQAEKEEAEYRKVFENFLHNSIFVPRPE
Chain of Rhesus IGF-IR (beta, as listed by the source limits assumed, chain 2 of 2): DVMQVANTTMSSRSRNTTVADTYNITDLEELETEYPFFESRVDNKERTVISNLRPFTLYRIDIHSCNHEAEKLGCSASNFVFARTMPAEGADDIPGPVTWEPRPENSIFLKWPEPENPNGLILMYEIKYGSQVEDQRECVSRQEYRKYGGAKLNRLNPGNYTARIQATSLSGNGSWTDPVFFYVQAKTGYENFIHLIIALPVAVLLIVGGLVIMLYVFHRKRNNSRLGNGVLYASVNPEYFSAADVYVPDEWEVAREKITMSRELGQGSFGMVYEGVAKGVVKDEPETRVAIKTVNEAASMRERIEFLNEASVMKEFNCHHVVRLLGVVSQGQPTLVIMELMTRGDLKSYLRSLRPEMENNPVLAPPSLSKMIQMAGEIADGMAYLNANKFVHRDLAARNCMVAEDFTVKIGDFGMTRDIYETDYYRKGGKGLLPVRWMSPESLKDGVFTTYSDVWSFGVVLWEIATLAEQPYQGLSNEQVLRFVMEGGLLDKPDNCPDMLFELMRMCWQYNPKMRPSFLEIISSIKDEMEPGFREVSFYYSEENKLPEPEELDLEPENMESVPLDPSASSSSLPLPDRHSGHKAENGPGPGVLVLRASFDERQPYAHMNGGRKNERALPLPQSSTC

B1: anti-IGF-IR antibody 2.12.1 (antibody, V domains shown)
VH: QAQLVESGGGLVKPGGSLRLSCAASGFTFSDYYMSWIRQAPGKGLEWVSYISSSGSTRDYADSVKGRFTISRDNAKNSLYLQMNSLRAEDTAVYYCVRDGVETTFYYYYYGMDVWGQGTTVTVSS
VL: DIQMTQSPSSLSASVGDRVTFTCRASQDIRRDLGWYQQKPGKAPKRLIYAASRLQSGVPSRFSGSGSGTEFTLTISSLQPEDFATYYCLQHNNYPRTFGQGTEVEIIR
notes: Fully human IgG2 kappa from a XenoMouse hybridoma; Biotinylated in the FACS assay
The term IC50 denotes the point on the concentration scale where inhibition reaches its midpoint. Consider B1, for which the “IC50 of inhibition of IGF-I-induced tyrosine phosphorylation of IGF-IR (ELISA, IGF-IR-transfected NIH-3T3 cells)” value in the assay with human IGF-IR on cells [1] worked out at 0.172 µg/mL. The binding result with canine IGF-IR, with guinea pig IGF-IR and with rabbit IGF-IR was “no binding (tested: 1 µg/ml)” each time. Moreover, in the assay with human IGF-IR on cells [2], the IC50 turned out to be 0.45 µg/mL.

B2: anti-IGF-IR antibody 2.14.3 (antibody, human IgG2, V domains shown)
VH: GPGLVKPSETLSLTCTVSGGSISNYYWSWIRQPAGKGLEWIGRIYTSGSPNYNPSLKSRVTMSVDTSKNQFSLKLNSVTAADTAVYYCAVTIFGVVIIFDYWGQGTLVTVSS
VL: SSLSASVGDRVTFTCRASQDIRRDLGWYQQKPGKAPKRLIYAASRLQSGVPSRFSGSGSGTEFTLTISSLQPEDFATYYCLQHNNYPRTFGQGTEVEIIR
B2: the “IC50 of inhibition of IGF-I-induced tyrosine phosphorylation of IGF-IR (ELISA, IGF-IR-transfected NIH-3T3 cells)” value with human IGF-IR on cells [1] is 0.325 µg/mL.

B3: anti-IGF-IR antibody 2.13.2 (antibody, V domains shown)
VH: EVQLLESGGGLVQPGGSLRLSCTASGFTFSSYAMNWVRQAPGKGLEWVSAISGSGGTTFYADSVKGRFTISRDNSRTTLYLQMNSLRAEDTAVYYCAKDLGWSDSYYYYYGMDVWGQGTTVTVSS
VL: DIQMTQFPSSLSASVGDRVTITCRASQGIRNDLGWYQQKPGKAPKRLIYAASRLHRGVPSRFSGSGSGTEFTLTISSLQPEDFATYYCLQHNSYPCSFGQGTKLEIKR
notes: as for B1
One may read the Kd as the free concentration of one partner at which half of the binding sites on the other are occupied at equilibrium, for simple one-to-one binding. In the case of B3, the “IC50 of inhibition of IGF-I-induced phosphorylation of IGF-IR (immunoprecipitation, Western blot with HRP-PY54)” value with COS7 IGF-IR worked out at 0.02 µg/mL; with Rhesus IGF-IR, 0.005 µg/mL. Also, the “IC50 of inhibition of IGF-I-induced tyrosine phosphorylation of IGF-IR (ELISA, IGF-IR-transfected NIH-3T3 cells)” value with human IGF-IR on cells [1] was determined as 0.0812 µg/mL. For the same molecule, the binding result in the assay with canine IGF-IR, with guinea pig IGF-IR and with rabbit IGF-IR was “no binding (tested: 1 µg/ml)” in each case. In the assay with human IGF-IR on cells [2], this molecule had an IC50 of 0.18 µg/mL. In addition, binding with cynomologous IGF-IR was characterised by a dissociation constant (Kd) of 0.1 µg/mL.

B4: anti-IGF-IR antibody 4.9.2 (antibody, human IgG2, V domains shown)
VH: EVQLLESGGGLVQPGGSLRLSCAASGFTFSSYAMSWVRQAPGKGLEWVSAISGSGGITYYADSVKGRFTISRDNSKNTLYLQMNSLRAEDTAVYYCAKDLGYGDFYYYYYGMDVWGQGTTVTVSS
VL: DIQMTQSPSSLSASVGDRVTITCRASQGIRSDLGWFQQKPGKAPKRLIYAASKLHRGVPSRFSGSGSGTEFTLTISRLQPEDFATYYCLQHNSYPLTFGGGTKVEIK
notes: Human IgG2 kappa; Biotinylated in the FACS assay
As to B4, the “IC50 of inhibition of IGF-I-induced phosphorylation of IGF-IR (immunoprecipitation, Western blot with HRP-PY54)” value in the assay with COS7 IGF-IR came out at 0.02 µg/mL; in the assay with Rhesus IGF-IR, 0.005 µg/mL. Further, the “IC50 of inhibition of IGF-I-induced tyrosine phosphorylation of IGF-IR (ELISA, IGF-IR-transfected NIH-3T3 cells)” value in the assay with human IGF-IR on cells [1] amounted to 0.0324 µg/mL. Further, the binding result with canine IGF-IR, in the assay with guinea pig IGF-IR and with rabbit IGF-IR was “no binding (tested: 1 µg/ml)” each time. In the assay with human IGF-IR on cells [2], this molecule returned an IC50 of 0.1 µg/mL. Besides, in the assay with cynomologous IGF-IR, the Kd turned out to be 0.1 µg/mL.

The values above are taken from patent publication US20040086503A1 (Amgen, published 2004).
